The target in the data set is T1, RAGE (Mus musculus, UniProt Q62151).
T1 construct: The first set of studies employed synthetic Aβ infused in to wild-type mice; from tissue; host or cells: brain vasculature (blood-brain barrier) of living wild-type mice
The data set can be described thus: Brain perfusion model: Aβ binding to brain capillaries and transport across the BBB. In kind it is in vivo, mice. As to the method:
FIGS. 1A-1F. […] FIG. 1A and bFIG.
Brain perfusion model. […] Details of the extracorporeal perfusion circuit were as reported elsewhere. ^22,23,38,39 At the start of the perfusion, the contralateral common carotid artery was ligated, and both jugular veins severed to allow free drainage of the perfusate. Brains were perfused with oxygenated perfusion medium at a flow rate of 1 ml/min by peristalitic pump. […] Perfusion pressure and animal's own arterial blood pressure were continuously monitored. Blood gasses pO2, pCO2 and pH and electrolytes in the arterial inflow and in animal's own blood were monitored.
Injection of radioisotopes for transport studies. […] When the effects of different unlabeled molecular reagents were tested, those were injected 5 min prior to tracers injection and than simultaneously with radiolabled ligands. At predetermined times within 10 min mice were sacrificed by decapitation, and brain tissue prepared for radioactivity analysis. TCA and HPLC analysis as we described were used to determine molecular forms of uptake of radiolabeled Aβ by the BBB.^22,23 Capillary-depletion technique was used to separate micravascular pellet from capillary-depleted brain to quantify in vivo binding to microvessels vs. transport into brain parenchyma, as we reported.^22, 23
Mathematical modeling for transport studies. […] The rate of entry (KIN) is computed from eq. 1: d[CIN (TEST-MOLEUCLE)−CIN (ALBUMIN)]/dt=KINCPL−KOUT[CIN (TEST-MOLECULE)−CIN (ALBUMIN)], where KOUT is exit or efflux transfer coefficient, and R is the steady state or equilibrium ratio. Eq. 1 is integrated to give [CIN (TEST-MOLECULE)−CIN (ALBUMIN)]/CPL=R (1−e^−KOUT T) (eq. 2). R is the steady state ratio, and the ratio KIN/KOUT at infinite time, and T is infusion time. Numerical values for KOUT may be obtained from the slope of the plot of ln (R−[CIN (TEST-MOLECULE)−CIN (ALBUMIN)]/CPL) (eq. 3) against T, using the equation KOUT=−ln(R−[CIN (TEST-MOLECULE)−CIN (ALBUMIN)]/CPL)/T (eq. 4). Finally, the value for KIN is derived by substituting the number for KOUT in: KIN=R KOUT (eq. 5). When tracer uptake remains linear over studied period of time, the exist constant approaches zero, and KIN=d[CIN (TEST-MOLEUCLE)−CIN (ALBUMIN)]/dt CPL. […] Advanced graphics software and the MLAB mathematical modeling system (as above) will be used to obtain graphic plots and compute transfer coefficients.

[1] abbreviates: circulating 125I-labeled peptide, mice and guinea pigs.
Setting [2] is: reagent in arterial inflow, 125I-Aβ 4 nM, 10 min.

T1 sequence (Q62151 23-402): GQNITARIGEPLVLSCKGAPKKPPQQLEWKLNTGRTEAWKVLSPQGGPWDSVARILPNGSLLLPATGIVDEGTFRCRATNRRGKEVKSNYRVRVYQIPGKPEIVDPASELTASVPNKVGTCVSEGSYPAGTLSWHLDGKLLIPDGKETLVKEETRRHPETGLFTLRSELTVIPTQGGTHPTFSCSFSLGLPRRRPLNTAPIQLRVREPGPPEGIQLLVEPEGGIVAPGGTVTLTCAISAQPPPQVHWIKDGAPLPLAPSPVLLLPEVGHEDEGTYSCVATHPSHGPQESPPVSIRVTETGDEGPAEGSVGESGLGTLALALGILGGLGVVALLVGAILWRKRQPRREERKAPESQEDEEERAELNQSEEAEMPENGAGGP

“Aβ1-42: synthetic amyloid-β peptide 1-42, human form”: under setting [1], the “binding of the peptide to brain microvessels” value is on record as “absence of its significant binding” and the “transport of the peptide across the BBB” value is given as “somewhat slower, but significant”.
For fucoidan, under setting [2], the “effect on Aβ transport into brain (BBB transport of Aβ)” value is on record as “did not affect” and the “effect on binding of Aβ to brain microvessels” value is on record as “did not affect”.

The values above are taken from patent publication US6677299B2, “Method to increase cerebral blood flow in amyloid angiopathy” (The Trustee of Columbia University in the city of New York, priority 2000, dated 2004).
